Assay results reported in IntAct's records for PubMed 16280320.

B1: Dolichol-phosphate mannosyltransferase subunit 3 (Cricetulus griseus (Chinese hamster)), Q4LDX8 (parent)
chain: MTKLAQWLWGLALLGSAWAALTMGALGLELPFPCQEVLWPLPAYLLVSAGCYALGTVGYRVATFHDCEDAARELQSQILEARADLARRGLRF

Variants of: B1
Conditions: with dpm1_human DPM1, O60762
Chain of dpm1_human DPM1, O60762 (O60762 whole entry): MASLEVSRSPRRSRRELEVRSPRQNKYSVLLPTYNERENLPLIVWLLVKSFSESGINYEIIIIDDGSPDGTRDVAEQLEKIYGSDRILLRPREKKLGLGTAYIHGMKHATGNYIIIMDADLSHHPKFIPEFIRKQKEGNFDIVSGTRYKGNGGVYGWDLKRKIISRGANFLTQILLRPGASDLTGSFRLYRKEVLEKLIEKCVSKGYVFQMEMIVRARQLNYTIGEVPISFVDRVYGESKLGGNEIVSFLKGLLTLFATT

| effect of a mutation on the interaction | Variant |
| --- | --- |
| disrupting interaction | MTKLAQWLWGLALLGSAWAALTMGALGLELPFPCQEVLWPLPAYLLVSAGCYALGTVGYRVATFHDCEDAARESQSQTLEARADSARRGLRF [L74S;I78T;L85S] |
